This note sets out measurements from paper PMC6271940.

This test addresses T1, angiotensin I-converting enzyme (UniProt P12822).
T1 sequence: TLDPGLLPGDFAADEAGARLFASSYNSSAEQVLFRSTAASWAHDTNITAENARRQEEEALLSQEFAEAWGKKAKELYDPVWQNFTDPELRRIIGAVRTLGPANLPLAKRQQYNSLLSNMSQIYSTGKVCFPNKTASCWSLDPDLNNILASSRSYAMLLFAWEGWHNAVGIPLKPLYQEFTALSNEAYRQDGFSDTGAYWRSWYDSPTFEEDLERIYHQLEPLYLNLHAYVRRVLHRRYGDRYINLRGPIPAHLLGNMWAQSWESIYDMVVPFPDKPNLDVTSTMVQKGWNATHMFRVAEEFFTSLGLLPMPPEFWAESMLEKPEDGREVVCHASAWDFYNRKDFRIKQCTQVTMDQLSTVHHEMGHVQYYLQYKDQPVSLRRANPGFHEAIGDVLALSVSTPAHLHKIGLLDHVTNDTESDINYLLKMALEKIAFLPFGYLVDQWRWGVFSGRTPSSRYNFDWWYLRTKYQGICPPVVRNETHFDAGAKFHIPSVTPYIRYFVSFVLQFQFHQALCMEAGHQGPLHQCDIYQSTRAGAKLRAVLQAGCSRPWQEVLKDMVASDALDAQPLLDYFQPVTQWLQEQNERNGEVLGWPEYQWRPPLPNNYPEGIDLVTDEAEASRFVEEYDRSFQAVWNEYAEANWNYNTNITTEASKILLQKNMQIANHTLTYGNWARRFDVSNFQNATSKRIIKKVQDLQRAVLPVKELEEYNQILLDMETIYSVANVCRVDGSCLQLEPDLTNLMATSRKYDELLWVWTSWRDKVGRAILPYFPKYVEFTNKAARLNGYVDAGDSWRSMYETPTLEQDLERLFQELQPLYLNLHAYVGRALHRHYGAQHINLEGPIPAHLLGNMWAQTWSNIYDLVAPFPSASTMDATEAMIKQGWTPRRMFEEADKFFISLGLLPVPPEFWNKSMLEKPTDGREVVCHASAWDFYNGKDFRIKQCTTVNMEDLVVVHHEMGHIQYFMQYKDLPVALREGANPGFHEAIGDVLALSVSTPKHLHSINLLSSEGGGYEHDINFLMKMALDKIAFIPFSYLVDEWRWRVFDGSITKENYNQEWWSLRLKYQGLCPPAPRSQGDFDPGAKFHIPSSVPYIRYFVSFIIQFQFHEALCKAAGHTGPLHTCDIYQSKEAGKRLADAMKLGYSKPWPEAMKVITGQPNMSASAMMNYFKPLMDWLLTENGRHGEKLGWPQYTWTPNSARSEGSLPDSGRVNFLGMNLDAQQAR

Consider VKP (peptide), for which the ACE inhibitory activity (release of hippuric acid from HHL, HPLC at 228 nm; 50 mM borate, 0.3 M NaCl, pH 8.3, 37 °C, 60 min), IC50 stood at 1.3 μM.

B1: VKCFR (peptide)
peptide: VKCFR
On to B1, for which the ACE inhibitory activity (release of hippuric acid from HHL, HPLC at 228 nm; 50 mM borate, 0.3 M NaCl, pH 8.3, 37 °C, 60 min), IC50 turned out to be 34.5 μM.
